Patent US20190336574A1 (TRUSTEES OF PRINCETON UNIVERSITY, published 2019)

B1: murine MTDH, wild type (other, mouse, UniProt Q80WJ7 1-579, looked up)
chain: MAARSWQDELAQQAEEGSARLRELLSVGLGFLRTELGLDLGLEPKRYPGWVILVGTGALGLLLLFLLGYGWAAACAGARKKRRSPPRKREEAAPPTPAPDDLAQLKNLRSEEQKKKNRKKLPEKPKPNGRTVEVPEDEVVRNPRSITAKQAPETDKKNEKSKKNKKKSKSDAKAVQNSSRHDGKEVDEGAWETKISHREKRQQRKRDKVLTDSGSLDSTIPGIENIITVTTEQLTTASFPVGSKKNKGDSHLNVQVSNFKSGKGDSTLQVSSRLNENLTVNGGGWSEKSVKLSSQLSEEKWNSVPPASAGKRKTEPSAWTQDTGDTNANGKDWGRNWSDRSIFSGIGSTAEPVSQSTTSDYQWDVSRNQPYIDDEWSGLNGLSSADPSSDWNAPAEEWGNWVDEDRASLLKSQEPISNDQKVSDDDKEKGEGALPTGKSKKKKKKKKKQGEDNSHTQDTEDLEKDTREELPVNTSKARPKQEKACSLKTMSTSDPAEVLIKNSQPVKTLPPAISAEPSITLSKGDSDNSSSQVPPMLQDTDKPKSNAKQNSVPPSQTKSETNWESPKQIKKKKKARRET
notes: Re-expressed by lentivirus in PyMT;Mtdh-/- tumor cells; also used for the endogenous protein of PyMT;Mtdh+/+ cells (same protein); also called mouse MTDH; WT MTDH (murine form)
B2: GST-MTDH (364-582) W394A (other)
chain: YQWDVSRNQPYIDDEWSGLNGLSSADPNSDANAPAEEWGNWVDEERASLLKSQEPIPDDQKVSDDDKEKGEGALPTGKSKKKKKKKKKQGEDNSTAQDTEELEKEIREDLPVNTSKTRPKQEKAFSLKTISTSDPAEVLVKNSQPIKTLPPATSTEPSVILSKSDSDKSSSQVPPILQETDKSKSNTKQNSVPPSQTKSETSWESPKQIKKKKKARRET
notes: not shown: N-terminal GST tag with TEV site, pQlink vector

Columns and labels:
murine SND1, wild type = molecular target: T1, murine SND1, wild type (mouse, UniProt Q78PY7 1-910); assay: anti-MTDH co-IP from PyMT;Mtdh-/- tumor cells reconstituted with murine MTDH, western blot
T1 construct: Endogenous protein of murine PyMT mammary tumor cells; also called SND1 (in PyMT tumor cells); WT shRNA-resistant murine SND1
T1 sequence (looked up): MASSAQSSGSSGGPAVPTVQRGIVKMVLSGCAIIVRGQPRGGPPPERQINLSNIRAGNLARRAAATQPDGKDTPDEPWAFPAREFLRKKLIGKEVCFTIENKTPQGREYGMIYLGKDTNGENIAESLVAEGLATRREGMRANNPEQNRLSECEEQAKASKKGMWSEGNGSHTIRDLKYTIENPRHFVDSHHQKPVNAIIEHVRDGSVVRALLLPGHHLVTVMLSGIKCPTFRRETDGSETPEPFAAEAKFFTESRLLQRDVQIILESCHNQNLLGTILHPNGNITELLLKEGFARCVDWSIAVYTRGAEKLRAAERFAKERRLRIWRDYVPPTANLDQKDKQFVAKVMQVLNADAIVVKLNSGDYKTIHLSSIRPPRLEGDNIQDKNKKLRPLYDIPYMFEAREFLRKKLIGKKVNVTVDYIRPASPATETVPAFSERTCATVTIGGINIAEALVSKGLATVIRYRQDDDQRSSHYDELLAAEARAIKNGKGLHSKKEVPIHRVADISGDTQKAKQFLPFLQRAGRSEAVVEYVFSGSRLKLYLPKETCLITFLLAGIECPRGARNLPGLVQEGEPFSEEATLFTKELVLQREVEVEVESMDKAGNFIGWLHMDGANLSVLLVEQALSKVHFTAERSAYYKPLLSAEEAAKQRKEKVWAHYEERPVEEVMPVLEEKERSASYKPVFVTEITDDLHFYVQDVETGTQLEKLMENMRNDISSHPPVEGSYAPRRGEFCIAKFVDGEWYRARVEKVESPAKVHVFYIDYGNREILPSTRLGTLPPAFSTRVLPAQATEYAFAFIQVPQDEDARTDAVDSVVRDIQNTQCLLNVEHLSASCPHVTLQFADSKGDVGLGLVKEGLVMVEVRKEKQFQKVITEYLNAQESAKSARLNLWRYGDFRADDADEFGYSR
Description: (FIG. 23A) Lysates from PyMT;Mtdh−/− tumor cells reconstituted with vector control, WT or mutant murine MTDH were immunoprecipitated with anti-MTDH antibody and immunoblotted for indicated proteins. Note all amino acid annotations are based on human MTDH. W394 and W401 of human MTDH correspond to W391 and W398 in murine MTDH, respectively. (FIG. 23B) Mammosphere assays were performed with PyMT;Mtdh−/− tumor cells reconstituted with indicated MTDH constructs. (FIG. 23C-E) In vivo tumor formation (FIG. 23C for tumor incidence; FIG. 23D, FIG. 23E for tumor volumes) were performed at limiting numbers using PyMT;Mtdh−/− tumor cells reconstituted with indicated WT or mutant MTDH. Statistics: (FIG. 23B) Student's t-test. Data represent mean±SEM. (FIG. 23C) Limiting dilution analysis. (FIG. 23D, FIG. 23E) Mann-Whitney test. **p<0.01, *p<0.05.
Immunoprecipitation and western blot: For in vivo immunoprecipitation (IP) experiments, cultured cells were washed in cold PBS and lysed in lysis buffer (20 mM Tris pH 7.4, 0.15 M NaCl, 1 mM EDTA, 1 mM EGTA, 1% Tx-100, 0.0025 M Na2P2O7, 1 mM β-glycerolphosphate, 1 mM Na3VO4, and 1 mM NaF) with an EDTA-free protease inhibitor mixture (Roche Applied Science) and PMSF. Cell lysates were then incubated on ice for 10 min, centrifuged, and precleared by incubating with protein A/G beads (Santa Cruz Biotechnology) for 1 h at 4° C. […]

[1] = molecular target: T2, murine SND1 F250A (shRNA-resistant construct) (mouse, UniProt Q78PY7 1-910); assay: co-IP (anti-MTDH) from SND1-KD PyMT;Mtdh+/+ tumor cells reconstituted with SND1 constructs, western blot
T2 sequence (looked up): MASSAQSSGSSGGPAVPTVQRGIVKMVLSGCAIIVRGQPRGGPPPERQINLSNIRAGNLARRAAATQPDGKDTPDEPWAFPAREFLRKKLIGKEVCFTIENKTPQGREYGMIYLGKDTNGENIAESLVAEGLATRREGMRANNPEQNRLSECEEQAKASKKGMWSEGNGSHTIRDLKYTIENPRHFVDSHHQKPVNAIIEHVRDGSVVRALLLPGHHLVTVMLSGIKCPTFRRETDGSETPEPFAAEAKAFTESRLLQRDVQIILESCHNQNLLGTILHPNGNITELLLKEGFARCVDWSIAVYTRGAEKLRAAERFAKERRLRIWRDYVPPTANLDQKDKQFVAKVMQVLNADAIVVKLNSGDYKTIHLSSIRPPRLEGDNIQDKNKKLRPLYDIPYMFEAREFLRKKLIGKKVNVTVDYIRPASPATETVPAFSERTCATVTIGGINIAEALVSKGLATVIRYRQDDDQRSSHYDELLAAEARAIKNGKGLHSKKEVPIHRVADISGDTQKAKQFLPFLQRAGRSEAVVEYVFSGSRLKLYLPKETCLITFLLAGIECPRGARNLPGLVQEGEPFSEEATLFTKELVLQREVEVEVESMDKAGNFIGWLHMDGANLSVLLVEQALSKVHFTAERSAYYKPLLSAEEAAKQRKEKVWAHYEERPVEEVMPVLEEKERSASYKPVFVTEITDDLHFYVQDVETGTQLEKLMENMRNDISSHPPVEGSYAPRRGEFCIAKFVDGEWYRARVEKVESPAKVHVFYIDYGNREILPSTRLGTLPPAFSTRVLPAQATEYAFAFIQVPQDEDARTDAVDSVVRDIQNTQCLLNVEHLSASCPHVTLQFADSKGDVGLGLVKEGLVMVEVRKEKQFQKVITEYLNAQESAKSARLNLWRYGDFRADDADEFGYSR

[2] = molecular target: T3, murine SND1 R255E (shRNA-resistant construct) (mouse, UniProt Q78PY7 1-910); assay: as above
T3 sequence (looked up): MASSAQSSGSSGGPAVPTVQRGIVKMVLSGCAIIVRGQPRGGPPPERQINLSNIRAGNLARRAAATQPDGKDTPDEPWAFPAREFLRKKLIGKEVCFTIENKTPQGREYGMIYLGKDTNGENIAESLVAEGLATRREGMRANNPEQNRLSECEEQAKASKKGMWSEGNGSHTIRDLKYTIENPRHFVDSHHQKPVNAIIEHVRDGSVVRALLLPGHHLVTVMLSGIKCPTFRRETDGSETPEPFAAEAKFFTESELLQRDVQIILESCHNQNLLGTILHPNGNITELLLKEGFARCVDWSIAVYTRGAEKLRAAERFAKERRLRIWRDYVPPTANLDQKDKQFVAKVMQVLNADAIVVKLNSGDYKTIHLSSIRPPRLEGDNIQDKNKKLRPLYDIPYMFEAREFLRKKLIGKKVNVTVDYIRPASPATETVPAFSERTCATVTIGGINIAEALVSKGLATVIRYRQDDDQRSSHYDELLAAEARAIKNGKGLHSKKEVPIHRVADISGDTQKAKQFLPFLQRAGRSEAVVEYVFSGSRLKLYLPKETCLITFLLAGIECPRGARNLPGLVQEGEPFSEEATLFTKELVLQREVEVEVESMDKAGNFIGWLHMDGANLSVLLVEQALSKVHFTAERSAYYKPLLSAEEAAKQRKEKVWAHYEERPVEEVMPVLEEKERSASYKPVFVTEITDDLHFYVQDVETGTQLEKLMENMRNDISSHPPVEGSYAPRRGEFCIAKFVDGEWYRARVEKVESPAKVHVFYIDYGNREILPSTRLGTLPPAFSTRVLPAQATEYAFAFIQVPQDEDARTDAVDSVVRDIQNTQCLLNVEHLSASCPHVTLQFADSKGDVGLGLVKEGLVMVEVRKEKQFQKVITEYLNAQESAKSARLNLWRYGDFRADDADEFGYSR

[3] = molecular target: T4, His-SND1 (16-339), SN1/2 domains, wild type (human, UniProt Q7KZF4 16-339); assay: GST pull-down of His-SND1 (16-339), SDS-PAGE, Coomassie
T4 construct: also called His6-SND1 harboring the SN1/2 domains; not shown: N-terminal His tag (His6, His8 or His) with TEV site, pQlink vector
T4 sequence: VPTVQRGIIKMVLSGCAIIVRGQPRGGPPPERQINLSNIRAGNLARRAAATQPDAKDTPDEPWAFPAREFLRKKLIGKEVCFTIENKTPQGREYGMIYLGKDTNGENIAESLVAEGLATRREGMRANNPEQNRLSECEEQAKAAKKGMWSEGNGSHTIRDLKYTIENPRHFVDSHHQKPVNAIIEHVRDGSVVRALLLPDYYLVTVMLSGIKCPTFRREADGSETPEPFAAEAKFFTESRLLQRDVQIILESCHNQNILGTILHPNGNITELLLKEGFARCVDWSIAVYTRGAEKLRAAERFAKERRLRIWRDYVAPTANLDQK
Description: (§1) GST-Mediated Pull-Down Assay: ˜20 μg of GST-MTDH (different truncation forms and site mutants) was bound to 10 μl of glutathione resin via GST tag. The resin was washed with 200 μl assay buffer (25 mM Tris, PH8.0, 150 mM NaCl, 3 mM DTT) three times to remove the excess unbound protein. […] The mixture was washed with 200 μl assay buffer twice before examined by SDS-PAGE, and visualized by Coomassie blue staining. The experiments were repeated 3 times and the ratio of SND1 associated with GST-MTDH was analyzed by ImageJ.

[4] = molecular target: T4, His-SND1 (16-339), SN1/2 domains, wild …; assay: GST pull-down on glutathione resin, SDS-PAGE, Coomassie blue; normalised percentage of binding, mean±SEM of three experiments
Source text: The proteins bound to GS4B were examined on SDS-PAGE and visualized by Coomassie blue staining. […] The bound proteins were examined as in (FIG. 22A). For both (FIG. 22A) and (FIG. 22B), experiments were repeated three times; representative results are shown. The normalized percentage of binding was averaged from three experiments; mean±SEM was shown below the data. (FIG. 22C) HEK293T cells were transfected with human HA-SND1, WT Myc-MTDH or Myc-MTDH with indicated single point mutation. Lysates were immunoprecipitated with anti-Myc antibody and immunoblotted with the indicated antibodies. (FIG. 22D) HEK293T cells were transfected with human Myc-MTDH, WT HA-SND1 or mutant HA-SND1 with indicated single point mutations or deletions. Lysates were immunoprecipitated with anti-Myc and immunoblotted with the indicated antibodies.
as §1
Identification of MTDH and SND1 mutants deficient in binding: To gain insight into how the interface characterized above contributes to MTDH-SND1 interaction, structure-guided mutagenesis studies were performed.

Row | Binder | binding result (murine SND1, wild type) | binding result [1] | binding result [2] | binding result [3] | % Maximum binding [4]
1 | B1 | binds | no binding | no binding |  | 
2 | B2 |  |  |  | no binding | 1%
